Here are results for three molecules from article PMC4470285, “A cell cycle-controlled redox switch regulates the topoisomerase IV activity” (Genes & Development, 2015).

The target of data set [1] is NstA(C8Y)-GFP (C. crescentus). Briefly: non-reducing SDS-PAGE with immunoblot; GFP fusions expressed from the xylX locus in C. crescentus; reducing against non-reducing SDS-PAGE; disulfide-linked dimer; also synchronized cells at 0 and 60 min.
Data set [2] addresses NstA-seGFP (C. crescentus). Kind of data set: not stated; cells overproducing NstA-seGFP, with or without 7.5 uM NEM (Supplemental Fig. S11B).
Data set [3] deals with the molecule itself. Briefly: non-reducing SDS-PAGE with immunoblot; GFP fusions expressed from the xylX locus in C. crescentus; reducing against non-reducing SDS-PAGE; disulfide-linked dimer; also synchronized cells at 0 and 60 min.

On to NstA(C8Y)-GFP (natural protein), for which the stoichiometry N in data set [1] came to 2. On to NstA-seGFP (natural protein), for which the stoichiometry N in data set [2] stood at 2.

B1: NstA-GFP (natural protein, C. crescentus, UniProt A0A0H3CC90 1-66, looked up)
chain: MQVFTFFCVESDGSVPRFDVTPCADDAAARVRAFELLDMHHRCDFVEVWRGAQRVFDVFAQQVAAA
notes: NstA (CCNA_03091), C. crescentus, predicted protein of 66 residues; also called functional C-terminal GFP version of wild-type NstA; xylX::Pxyl-nstA-gfp; source: wild-type C. crescentus, expressed from the xylX locus on the chromosome, in lysate; not shown: GFP, C-terminal, kept
Turning to B1, in data set [3], the “stoichiometry N” value turned out to be 2.
